This data set deals with WRKY50 (Arabidopsis thaliana, UniProt Q8VWQ5 1-173). Description: EMSA. In general terms: Mobility shift assays separate free from complexed probe on a gel.
Sequence of WRKY50 (Q8VWQ5 whole entry): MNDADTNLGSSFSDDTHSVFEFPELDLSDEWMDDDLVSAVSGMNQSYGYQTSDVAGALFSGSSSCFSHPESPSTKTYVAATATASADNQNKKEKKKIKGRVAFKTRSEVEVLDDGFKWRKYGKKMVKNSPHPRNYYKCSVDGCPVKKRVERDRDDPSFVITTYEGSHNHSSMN

B1: WK-box consensus probe (dsDNA)
DNA 1: ATCGTCTAGATCGATTTTTCCACACGATGCTAGTCGTCA
DNA 2: TGACGACTAGCATCGTGTGGAAAAATCGATCTAGACGAT
For the molecule B1, the binding result was “binds”.

B2: WT-box consensus probe (dsDNA)
DNA 1: ATCGTCTAGATCGAAAAAGTCAACCGATGCTAGTCGTCA
DNA 2: TGACGACTAGCATCGGTTGACTTTTTCGATCTAGACGAT
B2: the binding result is on record as “binds”.

The values above are taken from publication PMC12630144.
